Reference: the supplement of paper PMC11246515
± gives the standard deviation of the averaged measurements.

Assay: total protein half-life in vivo (active degradation + dilution); higher = more stable protein
[1] = E. coli NCM3722 delta-clpP delta-lon delta-hslV, growth: N-lim chemostat, doubling time 6 h
[2] = E. coli NCM3722 delta-clpP, growth: N-lim chemostat, doubling time 6 h
[3] = E. coli NCM3722 delta-hslV, growth: N-lim chemostat, doubling time 6 h
[4] = E. coli NCM3722 delta-lon, growth: N-lim chemostat, doubling time 6 h
[5] = E. coli NCM3722 delta-smpB, growth: N-lim chemostat, doubling time 6 h
[6] = wild type E. coli NCM3722, growth: C-lim chemostat, doubling time 3 h
[7] = wild type E. coli NCM3722, growth: C-lim chemostat, doubling time 6 h
[8] = wild type E. coli NCM3722, growth: C-lim chemostat, doubling time 12 h
[9] = wild type E. coli NCM3722, growth: N-lim chemostat, doubling time 6 h
[10] = wild type E. coli NCM3722, growth: N-lim chemostat, doubling time 12 h
[11] = wild type E. coli NCM3722, growth: P-lim chemostat, doubling time 6 h
[12] = wild type E. coli NCM3722, growth: P-lim chemostat, doubling time 12 h

Row | Sequence | total protein half-life in vivo [1] [h] | total protein half-life in vivo [2] [h] | total protein half-life in vivo [3] [h] | total protein half-life in vivo [4] [h] | total protein half-life in vivo [5] [h] | total protein half-life in vivo [6] [h] | total protein half-life in vivo [7] [h] | total protein half-life in vivo [8] [h] | total protein half-life in vivo [9] [h] | total protein half-life in vivo [10] [h] | total protein half-life in vivo [11] [h] | total protein half-life in vivo [12] [h]
1 | MATPHINAEMGDFADVVLMPGDPLRAKYIAETFLEDAREVNNVRGMLGFTGTYKGRKISVMGHGMGIPSCSIYTKELITDFGVKKIIRVGSCGAVLPHVKLRDVVIGMGACTDSKVNRIRFKDHDFAAIADFDMVRNAVDAAKALGIDARVGNLFSADLFYSPDGEMFDVMEKYGILGVEMEAAGIYGVAAEFGAKALTICTVSDHIRTHEQTTAAERQTTFNDMIKIALESVLLGDKE [P0ABP8] | 5.35 ± 0.52 | 4.9 ± 0.79 | 4.26 ± 0.18 | 5.28 ± 0.12 | 4.44 ± 0.086 | 3.14 ± 0.25 | 5.99 ± 0.48 | 12.6 ± 1.4 | 4.38 ± 0.34 | 7.48 ± 0.6 | 5.65 ± 0.38 | 13.1 ± 0.34
2 | MTLLALGINHKTAPVSLRERVSFSPDKLDQALDSLLAQPMVQGGVVLSTCNRTELYLSVEEQDNLQEALIRWLCDYHNLNEEDLRKSLYWHQDNDAVSHLMRVASGLDSLVLGEPQILGQVKKAFADSQKGHMKASELERMFQKSFSVAKRVRTETDIGASAVSVAFAACTLARQIFESLSTVTVLLVGAGETIELVARHLREHKVQKMIIANRTRERAQILADEVGAEVIALSDIDERLREADIIISSTASPLPIIGKGMVERALKSRRNQPMLLVDIAVPRDVEPEVGKLANAYLYSVDDLQSIISHNLAQRKAAAVEAETIVAQETSEFMAWLRAQSASETIREYRSQAEQVRDELTAKALAALEQGGDAQAIMQDLAWKLTNRLIHAPTKSLQQAARDGDNERLNILRDSLGLE [P0A6X1] | 4.33 ± 0.069 | 2.95 ± 0.26 | 1.55 | 1.59 ± 0.083 | 1.51 ± 0.25 | 1.03 | 1.84 ± 0.15 | 2.76 ± 0.68 | 1.35 ± 0.31 | 2.08 | 1.29 ± 0.43 | 1.9
3 | MNNLPLLNDLRVFMLVARRAGFAAVAEELGVSPAFVSKRIALLEQTLNVVLLHRTTRRVTITEEGERIYEWAQRILQDVGQMMDELSDVRQVPQGMLRIISSFGFGRQVVAPALLALAKAYPQLELRFDVEDRLVDLVNEGVDLDIRIGDDIAPNLIARKLATNYRILCASPEFIAQHGAPKHLTDLSALPCLVIKERDHPFGVWQLRNKEGPHAIKVTGPLSSNHGEIVHQWCLDGQGIALRSWWDVSENIASGHLVQVLPEYYQPANVWAVYVSRLATSAKVRITVEFLRQYFAEHYPNFSLEHA | 5.43 ± 0.67 | 1.82 ± 0.43 |  |  | 1.16 | 0.948 ± 0.17 | 2.24 ± 0.21 | 3.54 ± 0.1 |  |  | 0.535 | 
4 | MKKSLLGLTFASLMFSAGSAVAADYKIDKEGQHAFVNFRIQHLGYSWLYGTFKDFDGTFTFDEKNPAADKVNVTINTTSVDTNHAERDKHLRSADFLNTAKYPQATFTSTSVKKDGDELDITGDLTLNGVTKPVTLEAKLIGQGDDPWGGKRAGFEAEGKIKLKDFNIKTDLGPASQEVDLIISVEGVQQK [P0A8X2] | 5.61 ± 0.24 | 6.32 ± 0.21 | 6.38 ± 0.11 | 6.59 ± 0.48 | 6.61 ± 1.1 | 3.22 ± 0.24 |  | 10.6 ± 4 | 6.19 ± 0.62 | 10.9 ± 2.2 | 6.05 ± 0.28 | 14 ± 1.4
5 | MSDWNPSLYLHFSAERSRPAVELLARVPLENVEYVADLGCGPGNSTALLQQRWPAARITGIDSSPAMIAEARSALPDCQFVEADIRNWQPVQALDLIFANASLQWLPDHYELFPHLVSLLNPQGVLAVQMPDNWLEPTHVLMREVAWEQNYPDRGREPLAGVHAYYDILSEAGCEVDIWRTTYYHQMPSHQAIIDWVTATGLRPWLQDLTESEQQLFLKRYHQMLEEQYPLQENGQILLAFPRLFIVARRME | 3.89 ± 0.51 | 5.9 ± 1.7 | 4.82 ± 0.7 | 6.54 ± 1.9 | 3.62 ± 0.042 | 3.29 ± 0.6 |  | 9.97 ± 1.8 | 4.14 ± 0.17 | 4.96 | 5.89 ± 0.061 | 11 ± 0.27
6 | MKQALRVAFGFLILWASVLHAEVRIVIDSGVDSGRPIGVVPFQWAGPGAAPEDIGGIVAADLRNSGKFNPLDRARLPQQPGSAQEVQPAAWSALGIDAVVVGQVTPNPDGSYNVAYQLVDTGGAPGTVLAQNSYKVNKQWLRYAGHTASDEVFEKLTGIKGAFRTRIAYVVQTNGGQFPYELRVSDYDGYNQFVVHRSPQPLMSPAWSPDGSKLAYVTFESGRSALVIQTLANGAVRQVASFPRHNGAPAFSPDGSKLAFALSKTGSLNLYVMDLASGQIRQVTDGRSNNTEPTWFPDSQNLAFTSDQAGRPQVYKVNINGGAPQRITWEGSQNQDADVSSDGKFMVMVSSNGGQQHIAKQDLATGGVQVLSSTFLDETPSLAPNGTMVIYSSSQGMGSVLNLVSTDGRFKARLPATDGQVKFPAWSPYL [P0A855] | 5.6 ± 0.21 | 6.39 ± 0.61 |  | 6.28 ± 0.33 | 6.07 ± 0.73 | 3.14 ± 0.04 | 6.59 ± 0.57 | 11.3 ± 0.41 | 6.31 ± 0.17 | 13.8 ± 1.4 | 5.89 ± 0.3 | 13.05 ± 0.13
7 | MAIHNRAGQPAQQSDLINVAQLTAQYYVLKPEAGNAEHAVKFGTSGHRGSAARHSFNEPHILAIAQAIAEERAKNGITGPCYVGKDTHALSEPAFISVLEVLAANGVDVIVQENNGFTPTPAVSNAILVHNKKGGPLADGIVITPSHNPPEDGGIKYNPPNGGPADTNVTKVVEDRANALLADGLKGVKRISLDEAMASGHVKEQDLVQPFVEGLADIVDMAAIQKAGLTLGVDPLGGSGIEYWKRIGEYYNLNLTIVNDQVDQTFRFMHLDKDGAIRMDCSSECAMAGLLALRDKFDLAFANDPDYDRHGIVTPAGLMNPNHYLAVAINYLFQHRPQWGKDVAVGKTLVSSAMIDRVVNDLGRKLVEVPVGFKWFVDGLFDGSFGFGGEESAGASFLRFDGTPWSTDKDGIIMCLLAAEITAVTGKNPQEHYNELAKRFGAPSYNRLQAAATSAQKAALSKLSPEMVSASTLAGDPITARLTAAPGNGASIGGLKVMTDNGWFAARPSGTEDAYKIYCESFLGEEHRKQIEKEAVEIVSEVLKNA | 5.51 ± 0.17 | 5.19 ± 0.29 | 5.82 ± 0.08 | 5.31 ± 0.31 | 5.64 ± 0.31 | 2.98 ± 0.16 |  | 9.719 ± 0.083 | 5.2 ± 0.099 | 9.34 ± 0.22 | 5.905 ± 0.033 | 11.6 ± 0.12
8 | MKGLNKITCCLLAALLMPCAGHAENEQYGANFNNADIRQFVEIVGQHLGKTILIDPSVQGTISVRSNDTFSQQEYYQFFLSILDLYGYSVITLDNGFLKVVRSANVKTSPGMIADSSRPGVGDELVTRIVPLENVPARDLAPLLRQMMDAGSVGNVVHYEPSNVLILTGRASTINKLIEVIKRVDVIGTEKQQIIHLEYASAEDLAEILNQLISESHGKSQMPALLSAKIVADKRTNSLIISGPEKARQRITSLLKSLDVEESEEGNTRVYYLKYAKATNLVEVLTGVSEKLKDEKGNARKPSSSGAMDNVAITADEQTNSLVITADQSVQEKLATVIARLDIRRAQVLVEAIIVEVQDGNGLNLGVQWANKNVGAQQFTNTGLPIFNAAQGVADYKKNGGITSANPAWDMFSAYNGMAAGFFNGDWGVLLTALASNNKNDILATPSIVTLDNKLASFNVGQDVPVLSGSQTTSGDNVFNTVERKTVGTKLKVTPQVNEGDAVLLEIEQEVSSVDSSSNSTLGPTFNTRTIQNAVLVKTGETVVLGGLLDDFSKEQVSKVPLLGDIPLVGQLFRYTSTERAKRNLMVFIRPTIIRDDDVYRSLSKEKYTRYRQEQQQRIDGKSKALVGSEDLPVLDENTFNSHAPAPSSR | 2.53 |  |  |  | 1.92 ± 0.044 | 2.2 |  |  |  |  |  | 
9 | MAIRKRFIAGAKCPACQAQDSMAMWRENNIDIVECVKCGHQMREADKEARDHVRKDEQVIGIFHPD [P0ADW8] | 4.91 ± 0.73 | 3.52 ± 0.46 |  |  | 2.16 ± 0.17 | 1.8 ± 0.47 | 4.08 ± 1.4 | 2.51 |  | 2.52 | 3.48 | 7.36 ± 1.6
10 | MRPAGRSNNQVRPVTLTRNYTKHAEGSVLVEFGDTKVLCTASIEEGVPRFLKGQGQGWITAEYGMLPRSTHTRNAREAAKGKQGGRTMEIQRLIARALRAAVDLKALGEFTITLDCDVLQADGGTRTASITGACVALVDALQKLVENGKLKTNPMKGMVAAVSVGIVNGEAVCDLEYVEDSAAETDMNVVMTEDGRIIEVQGTAEGEPFTHEELLILLALARGESNPL [P0CG19] | 5.037 ± 0.026 | 4.44 ± 0.39 | > 8 | 4.79 ± 0.48 | 4.48 ± 0.11 |  |  | 11.7 ± 3.8 | 3.47 ± 0.77 | 6.88 ± 0.082 | 5.58 ± 0.93 | 
11 | MSGWPRIYYKLLNLPLSILVKSKSIPADPAPELGLDTSRPIMYVLPYNSKADLLTLRAQCLAHDLPDPLEPLEIDGTLLPRYVFIHGGPRVFTYYTPKEESIKLFHDYLDLHRSNPNLDVQMVPVSVMFGRAPGREKGEVNPPLRMLNGVQKFFAVLWLGRDSFVRFSPSVSLRRMADEHGTDKTIAQKLARVARMHFARQRLAAVGPRLPARQDLFNKLLASRAIAKAVEDEARSKKISHEKAQQNAIALMEEIAANFSYEMIRLTDRILGFTWNRLYQGINVHNAERVRQLAHDGHELVYVPCHRSHMDYLLLSYVLYHQGLVPPHIAAGINLNFWPAGPIFRRLGAFFIRRTFKGNKLYSTVFREYLGELFSRGYSVEYFVEGGRSRTGRLLDPKTGTLSMTIQAMLRGGTRPITLIPIYIGYEHVMEVGTYAKELRGATKEKESLPQMLRGLSKLRNLGQGYVNFGEPMPLMTYLNQHVPDWRESIDPIEAVRPAWLTPTVNNIAADLMVRINNAGAANAMNLCCTALLASRQRSLTREQLTEQLNCYLDLMRNVPYSTDSTVPSASASELIDHALQMNKFEVEKDTIGDIIILPREQAVLMTYYRNNIAHMLVLPSLMAAIVTQHRHISRDVLMEHVNVLYPMLKAELFLRWDRDELPDVIDALANEMQRQGLITLQDDELHINPAHSRTLQLLAAGARETLQRYAITFWLLSANPSINRGTLEKESRTVAQRLSVLHGINAPEFFDKAVFSSLVLTLRDEGYISDSGDAEPAETMKVYQLLAELITSDVRLTIESATQGEG [P0A7A7] |  | 7.2 ± 0.25 | 6.63 ± 0.61 | 6.38 ± 0.65 | 6.36 ± 0.2 | 3.37 ± 0.17 | 6.4 ± 0.11 | 12.2 ± 1.3 | 6.249 ± 0.032 | 13.3 ± 0.35 | 6.79 ± 0.28 | 13.4 ± 1.5
12 | MRLPIFLDTDPGIDDAVAIAAAIFAPELDLQLMTTVAGNVSVEKTTRNALQLLHFWNAEIPLAQGAAVPLVRAPRDAASVHGESGMAGYDFVEHNRKPLGIPAFLAIRDALMRAPEPVTLVAIGPLTNIALLLSQCPECKPYIRRLVIMGGSAGRGNCTPNAEFNIAADPEAAACVFRSGIEIVMCGLDVTNQAILTPDYLSTLPQLNRTGKMLHALFSHYRSGSMQSGLRMHDLCAIAWLVRPDLFTLKPCFVAVETQGEFTSGTTVVDIDGCLGKPANVQVALDLDVKGFQQWVAEVLALAS | 4.86 ± 1.4 | 4.75 |  | 4.13 | 3.64 | 2.8 ± 0.15 | 5.62 ± 0.1 | 9.27 ± 3.1 | 3.89 | 11.1 |  | 8.95 ± 3.1
13 | MALYTIGEVALLCDINPVTLRAWQRRYGLLKPQRTDGGHRLFNDADIDRIREIKRWIDNGVQVSKVKMLLSNENVDVQNGWRDQQETLLTYLQSGNLHSLRTWIKERGQDYPAQTLTTHLFIPLRRRLQCQQPTLQALLAILDGVLINYIAICLASARKKQGKDALVVGWNIQDTTRLWLEGWIASQQGWRIDVLAHSLNQLRPELFEGRTLLVWCGENRTSAQQQQLTSWQEQGHDIFPLGI |  | 1.79 | 1.66 | 3.39 ± 0.71 | 1.34 ± 0.26 | 1.64 ± 0.79 | 3.86 ± 0.76 | 4.23 ± 0.31 | 2.04 | 2.49 | 1.98 | 3.04 ± 0.58
